This series in a line: yeast display, Sf9 membrane polyspecificity reagent, FACS + sequencing; frameworks hold sequencing errors. The procedure, abridged: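 A synthetic nanobody library was expressed on Saccharomyces cerevisiae BJ5465 by galactose induction for 36–48 hours. The library was stained for 1 hour at 4 °C with 10% biotinylated, detergent-solubilized Sf9 membrane reagent and enriched with streptavidin microbeads before FACS. Low and high (top ~1%) gates were set on anti-HA fluorescence for expression and streptavidin fluorescence for reagent binding, and each polyreactivity label reflects the gate of origin.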
For the sequence “QVQLVESGGGLVQAGGSLRLSCAASGFTFFENAMGWYRQAPGKERELVAAIRKSGDRTYYADSVKGRFTISRDNAKNTVYLQMNSLKPEDTAVYYCAAPLSLRSSFGSWGQGTQVTVSS”, the “polyreactivity (PSR sort gate)” value is given as “high polyreactivity”.
For “QVQLVESGGGLVQAGGSLRLSCAASGRIFYQYAMGWYRQAPGKERELVAAIRYRDDGTYYADSVKGRFTISRDNAKNTVYLQMNSLKPEDTAVYYCAAKQWGRYGFWGQGTQVTVSS”, the “polyreactivity (PSR sort gate)” value is recorded as “high polyreactivity”.
In the case of “QVQLVESGGGLVQAGGSLRLSCAASGRIFIGNAMGWYRQAPGKERELVAAISKRGGSTYYADSVKGRFTISRDNAKNTVYLQMNSLKPEDTAVYYCNTESLYREFDDWGQGTQGTVSS”, the “polyreactivity (PSR sort gate)” value is on record as “low polyreactivity”.
As for “QVQLVESGGGLVQAGGSLRLSCAASGRTFKYYAMGWYRQAPGKERELVAAISRGGSTNYADSVKGRFTISRDNAKNTVYLQVNSLKPEDTPVYYCAKDYVWYDEYDYWGQGTQVTVSS”, the “polyreactivity (PSR sort gate)” value is “low polyreactivity”.
For “QVQLVESGGGLVQAGGSLRLSCAASGRIFPKNAMGWYRQAPGTERELVAAISSGGRTKYADSVKGRFTISRDNAKNTVYLQMNSLKPEDTAVYYCAAYFVSKTGGYYYWGQGTQVSVSS” the value was “high polyreactivity”.
For the sequence “QVQLVESWGALVQAGGSLRLSCAASGSTFGSNAMGWYRQAPGKERELVAAITYSGGRTYYADSVKGRFTISRDNAKNTVYLQMNSLTPEDTAVYYCAATFGFFYYQYDYWGQGTQVTVSS”, the “polyreactivity (PSR sort gate)” value is on record as “low polyreactivity”.
As to “QVQLVESGGGLVQAGGSLRLICAASGITYDQNAMGWYRQAPGKDRDLVAAITRGSSTNYADSVKGRVTISRDNAKNTVYLKMNSVKPEDTAVYYCAAAVLGSSKSEVDPDRPEYYYWGQGTQVTVSS”, the “polyreactivity (PSR sort gate)” value is on record as “low polyreactivity”.
On to “QVQLVESGAGLVQAGGSLRLSCAASGRIFRCYAMGWYRQAPGKERELVAAIRSGGSTNYADSVKGRFTISRDNAKNTVYLQMLSLKPEDTAVYYCATQNIYRIHQSLWGWYGYWGQGTQVTVSS”, for which the “polyreactivity (PSR sort gate)” value was “low polyreactivity”.
As for “QVQLVESGGGLVQAGGSLRLSCAASGRIFRAYAMGWYRQAPGKERELVASITGSGGSTYYADSVKGRFTISRDNAKNTVYLQMNSLKPEDTAVYYCAVASYRVWGVGTRFYYWGQGTQVTVSS”, the “polyreactivity (PSR sort gate)” value is reported as “high polyreactivity”.
With “QVQLVESGGGLVQAGGSLRLSCAASGSIFAYYTMGWYRQAPGKERELVARISSRGGRTYYADSVKGRFTISRDNAKNTVYLQMNSLKPEDTAVYYCNAGYSYRKYDYWGQGTQVTVSS” the entry was “high polyreactivity”; with “QVQLVESGGGLVQAGGSHRLSCAASGRTFPFYAMGWYRQAPGTERELVADITSSGGSTYYADSVKGRFTISRDNAKNTVYLQMNSLKPEDSAVYYCAADPIDISYWEFDYWGQGTQVTVSS”, “low polyreactivity”; with “QVQLVESGGGLFQAGVSLRLSCAASGLIFYGNAMGWYRQAPGKERELVAAITGGGGNTYYADSVKGRFTISRYYAKITVYLQMNSLKPEDTAVYYCATATSTAYVRYYYWGQGTQVTVSS”, “high polyreactivity”.
Consider “QVQLVESGGGLVQAGGSLRLSCAASGRTLRINAMGWYRQAPGKERELVAAISRSGGRTYYADSVKGRFTISRDNAKNTVYLQRNSLKPEDTAVYYCATGGVAYNYGWGQYYYWGQGTQVTVSS”, for which the “polyreactivity (PSR sort gate)” value is reported as “high polyreactivity”.
As to “QVQLVESGGGLVQAGGSLRLSCAASGSTFVYYDMGWYRQAPGKERELVAAITGSVDSTYYADSVKGRFTISRDNAKNTVYLQMNSLKPEDTAVYYCAADTYSTYWGQGTQVTVSS”, the “polyreactivity (PSR sort gate)” value is “low polyreactivity”.
“QVQLVESGGGLVQAGGSLRLSCAASGSTFTAYAMGWYRQAPGKERELVAVITSGGGTFYADSVKGRFTISRDNAKNTVYLQMNSLKPEDTAVYYCNAARTYPGTYIYRYGYWGQGTQVTVSP”: the “polyreactivity (PSR sort gate)” value is given as “high polyreactivity”.
With “QVQLVESGGGLVQAGGSLRLSCAASGSTFTNYAMGWYRQAPGKERELVAAINSGGSTHYADSVKGRFTISRDNAKNTVYLQMNSLKPEDTAVYYCAADPSALVYYWRWLGYDYWGQGTQVTVSS” the entry was “high polyreactivity”; with “QVQLVESGGGLVQAGGSLRLSCAASGRIFGGYVMGWYRQAPGKEREFVAAISGRGTSTSYADSVKGRFTISRDNAKNTVYVQMNSLKPEDTAVYYCAARPKSDYSNGGNYWGQGTQVTVSS”, “high polyreactivity”.
On to “QVQLVESGGGLVQAGGSLRLSCAASGFIFWTYAMGWYRQAPGKERELVAAITWSGTSTYYADSVKGRFTISRDNAKNTVYLQMNSLKPEDTAVYYCNALYYSRRVDYWGQGTQVTVSS”, for which the “polyreactivity (PSR sort gate)” value was “high polyreactivity”.
On to “QVQLVESGGGLVQAGGSLRLSCAASGSTFYYNAMGWYRQAPGKERELVAAITSSGGRTYYADSVKGRFTISRDNAMNTVYLQMNSLKPEDTAFYYCAKREASSRWPYDYWGQGTQVTVSS”, for which the “polyreactivity (PSR sort gate)” value is listed as “low polyreactivity”.
With “QVQLVESGGGLVQEGGSLRLSCAASGRTFEQNAMGWYRQAPGKERELVASITSVGSTDYADSVKGRFTISRDNAKNTVYLQMNSLKTEDTAVYYCAKTLGSQNYDFDYWGQGTQVTVSS” the entry was “low polyreactivity”.
Turning to “QVQLVESGGGLVQAGGSLRLSCAASGRSFSLYAMGWYRQAPGKERELVASITGSSTYYADSVKGRFTISRDNAKNTVYLQMNSLKPEDTAVYYCNARTSAGAGVDYWGQGTQVTVSS”, the “polyreactivity (PSR sort gate)” value was “low polyreactivity”.
For the sequence “QVQLVESGGGLVQAGGSLRLSCAASGSTFGANAMGWYRQAPGKERELVAAITYDGGSTYYADSVKGRFTISRDTAKNTVYLQMNSLKPEDTAVYYCAADFHIDSYYWGYYWGQGTQVTVSS”, the “polyreactivity (PSR sort gate)” value was “low polyreactivity”.
Regarding “QVQLVESGGGLVQAGGSLRLSCAASGFTFAPYAMGWYRQAPGKERELVAAISSNGGSTYYADSVKGRFTISRDNAKNTVYLQMNSLKPGDTAVYYCAAPVRQSSYNRYDSWGQGTQVTVSS”, the “polyreactivity (PSR sort gate)” value is “high polyreactivity”.
For the sequence “QVQLVESGGGLVQAGGSLRLSCAASGLIFRGYTMGWYRQAPGKEREFVAAITRRGTSTYYADSVKGRFTISRDNAKNTVYLQMNSLKPEDTAVYYCAARSVSGPRGYPYDYWGQGTQVTVSS”, the “polyreactivity (PSR sort gate)” value was “high polyreactivity”.
As for “QVQLVESGGGLVQAGGSLRLSCAASGIIINTYLMGWYRQAPGKERELVAAISRRGGSTYYADSVKGRFTISRDNAKITVYLQMNSLKPEDTAFYYCAADVLYQQAGTYYWGQGTQVNVSS”, the “polyreactivity (PSR sort gate)” value was “high polyreactivity”.
For “QVQLVESGGGLVQAGGSLRLSCAASGRIFGINAMGWYRQAPGKERELVAAITWSGDGTYYADSVKGRFTISRDNAKNTVYLQMNSLKPEDTAVYYCARYDYWGHGTQVTVSS”, the “polyreactivity (PSR sort gate)” value is listed as “low polyreactivity”.
For “QVQLVESGGGLVQAGRSLRLSCAASGIIFAFYAMGWYRQAPGKERELVAAISIDGSTYYADSVKGRFTISRDNAKNTVYLQMNSLKPEDTAVYYCAAQYLNVYYWEDYWGQGTQVTVSS” the value was “low polyreactivity”; for “QVQHVESGGGLVQAGGSLRLSCAASVRTLYYYAMGWSRQAPGKERELVAAISGGGRTYYADSVKGRFTISRDNAKNTVYLQMIILKPEDTAVYYCAARYRKSGLDNYWGQGTQVTVSS”, “high polyreactivity”; for “QVQLVESGGGLVQAGGSLRLSCAASGRIFVFYAMGWYRQAPGKERELVAAITASSTRTYYADSVKGRFTISRDHAKNTVYLQLNSLKPEDTAVYYCARDIRQYILYGRGDYWGQGTQVTVSS”, “low polyreactivity”.
With “QVQLVDSGGGLVQAGGSLRLSWAASGSTFVYNAMGWYRQAPGKEREFVAGISRSGGSTYYADSVKGRFTISRDNAKNTVYFQMNSLKPEDTAVYYCNARGGLPKYGYWGQGTQVTVSS” the entry was “high polyreactivity”.
For “QVQLVESGGGLVQAGGSLRLSCAASGSIFYFNAMGWYRQAPGKERELVAAISTSGGSTYADSVKGRFTISRDNAKNTVYLQMNSLKPEDTAVYYCAADFLTSRSRTFDYWGQGTQVTVSS” the value was “low polyreactivity”.
“QVQLVESGGGLVQAGGSLRLSCAASGFTFIDYAMGWSRQAPGKERELVAAITRDGGSTYYADSVKGRFTISRDNANNTVYLQMNRLKPEDTAVYYCATVRRVQHWVWYWLWRYDYWGQGTQVTVSS”: the “polyreactivity (PSR sort gate)” value is “high polyreactivity”.
As to “QVQLVESGGGLVQAGGRLRLSCAACGIIFLLYAMGWYRQAPGKERELVAAITNGGRTNYADSVQGRFTISRDNAKNTVYLQMNSRKPEDTALYYCNAVLSVPDYTLFDYWGQGTQVTVSS”, the “polyreactivity (PSR sort gate)” value is “low polyreactivity”.
In the case of “QVQLVESGGGLVQAGGGLRLSCAASGRIFAGYAMGWYRQAPGKEREFVAAISRSGVSTYYADSVKGRFTISRDNAKNTVYLQMNSLKPEDTAVYYCNVYKGNVVEHDYWGQGTQVTVSS”, the “polyreactivity (PSR sort gate)” value was “high polyreactivity”.
Consider “QVQLVESGGGLVQAGGSLRLSCAASGRTFGTYAMGWYRQAPGKERELVAAISSGGSTYADSVKGRFTISRDNAKNTVYLQRNSLTPEETAVYYCNADFRARNYHYYPRRFKYYYWGQGTQVTVSS”, for which the “polyreactivity (PSR sort gate)” value was “high polyreactivity”.
With “QVQLEESGGGLVQAGGSLRLSCAASGFTFSGYDMGWYSPAPGKERELVAGISYGGVSTTYADSVKGRFTISRDNAKNTVYVQMNSLKPEDTAVYYCNAEWTSFDWGQGTQVTVSS”, the “polyreactivity (PSR sort gate)” value is listed as “low polyreactivity”.
With “QVQLVESVVGLVQEGGSLRFSCAASASTLDSNPIGWYRQAPGKEREVVAAITSGGSTYYADSVKGRFTISRDNAKNTVYLQMNSLKPEDSAVYYCATAWYLGRYRSLGYWGQGTQVTVSS”, the “polyreactivity (PSR sort gate)” value is recorded as “high polyreactivity”.
For the sequence “QVQLVESGGGLVQAGGSLRLSCAASGRIFGNNAMGWYRQAPGKERELVAAISWSARSTYADSVKGRFTISRDNAKNTVYLQMNSLKPEVTAVYYCNADSAARKGWPIYGYWGQGTKVTVSS”, the “polyreactivity (PSR sort gate)” value is recorded as “high polyreactivity”.
With “QVQLEESAGGLVQAGGSLRLSCAASGSIFAYYAMGWYRQAPGKERELVAVIRSGGSTYYADSVKGRFTISRDNAKNTVYFQMNSLKPEDTAVYYCAARSYRPTRGDYWGQGTQVTVSS”, the “polyreactivity (PSR sort gate)” value is “high polyreactivity”.
Regarding “QVQLVESGGGLVQAGGSLRLSCAASGLTFRKYAMGWYRQAPGKERELVAGISSGGSTYYADSVKGRFTISRDNAKNTVYLQMNSLKPEDTAVYYCAAKALRTMYYWGQGTQVTVSS”, the “polyreactivity (PSR sort gate)” value is given as “high polyreactivity”.
With “QVQLVESGGGLVQAGGSLRLSCAASGRIFGRNAMGWYRQAPGKERELVAAISWRGGNTYYADSVKGRFTISRDNAKNTVYLQMNSLKPEDTAVYYCNTVQYRNEMGYWGQGTQVTVSS” the entry was “high polyreactivity”.

These data come from the nanobody polyreactivity screen of Harvey et al. (2022).
